The assay has as its target T1, Flag-tagged Cavβ3-subunit (rat, UniProt P54287 1-484).
T1 construct: whole, on cells; Flag-tagged in co-immunoprecipitation, pull-down and immunofluorescence; also called Flag-Cavβ3; N-Flag Cavβ3-subunits
Description: dissociation of β3 from GST-AID by peptide, Western blot of the supernatant. As for the experimental part:
B, BARP displaces the Caᵥβ3-subunit from the AID. In vivo expressed Caᵥβ3-subunits were pulled-down using a GST-AID fusion protein and the complex then incubated with increasing amounts of AID or BARP Domain I peptide. The Caᵥβ3-subunit displaced from the GST-AID was monitored by Western blot.
Preparation of cell homogenates lysed into a buffer containing (50 mM Tris-HCl (pH 7.5), 100 mM NaCl, 1 mM MgCl₂, 0.5% Triton) supplemented with proteases inhibitors, co-immunoprecipitation and Western blot analysis using the generated antibodies together with monoclonal anti-FLAG(M2; Sigma), rabbit anti-GST (Santa Cruz Biotechnology), rabbit Caᵥ1.2 (Chemicon International), Caᵥ2.1(Alomone labs), Caᵥ2.2 (Calbiochem), Caᵥβ₃ (Alomone labs) antibodies were carried out essentially as described in. Brain, skeletal muscle and heart lysates were purchased from Zyagen Laboratories. In vitro synthesized BARP was produced by using the TNT quick coupled transcription/translation systems (Promega). For the dissociation experiments, an AID peptide ([…]) and a BARP domain I peptide ([…]) were synthesized (Mimotopes). […] After extensive wash to remove unassociated β₃-subunits, increasing concentration of peptide (30, 60, 300, 600 nM) were added. After an incubation of four hours, 10% of the supernatant containing the dissociated β₃-subunit were loaded on SDS-PAGE and subjected to Western blot analysis. […]
On the technique in general: Immunoblotting shows a protein as a band on a membrane.

T1 sequence (P54287 whole entry): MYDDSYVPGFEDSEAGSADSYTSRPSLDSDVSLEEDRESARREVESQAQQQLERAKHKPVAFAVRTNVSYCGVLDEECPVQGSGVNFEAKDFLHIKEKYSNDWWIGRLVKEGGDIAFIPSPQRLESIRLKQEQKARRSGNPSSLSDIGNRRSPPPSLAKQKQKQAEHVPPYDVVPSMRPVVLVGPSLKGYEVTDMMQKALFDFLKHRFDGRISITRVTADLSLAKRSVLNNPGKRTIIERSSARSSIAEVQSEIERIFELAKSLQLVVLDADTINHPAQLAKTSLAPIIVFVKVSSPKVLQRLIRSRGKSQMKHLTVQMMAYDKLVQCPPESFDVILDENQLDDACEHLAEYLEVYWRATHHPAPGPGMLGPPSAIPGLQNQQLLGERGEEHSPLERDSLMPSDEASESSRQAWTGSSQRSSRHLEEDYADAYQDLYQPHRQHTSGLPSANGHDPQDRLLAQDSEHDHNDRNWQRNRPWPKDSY

B1: BARP domain I peptide (peptide)
peptide: SYRDLWSLRASLELHAATASD
notes: Synthesized by Mimotopes; also called AID-like BARP peptide
B1: the binding result is recorded as “binds”.

(Values after US20100272737A1 (AGENCY FOR SCIENCE TECHNOLOGY AND RESEARCH, published 2010).)
